Consider two molecules from patent US20070134256A1.

As usually defined, the IC50 is the concentration that gives 50% inhibition. Low readings indicate inhibition by little substance, high ones a need for much substance.

Where only a bound is given, the exact number is not on record here.

In test [1] the target is DENV-2 antigenic variant NGC-V2 (dengue type 2 virus), P14340. As to the kind of experiment: cell-based or functional assay.
In the next test the target is chimpanzee Fab 1A5. The experiment in a line: competition ELISA: Fab 1A5 (1.04 nM) pre-incubated with peptide in serial dilution, then binding to DENV-2 coated wells. On the technique in general: An ELISA detects its analyte on a solid surface through an enzyme-linked reagent.

B1: chimpanzee Fab 1A5 (Fab, V domains shown)
VH: EVQLLESGGGLVQPGGSRRLSCAASGFTISDNVMHWVRQAPGKGLEWVALIYSADTTHYADSVKGRFTISRDNSKNTLYLQMDSLRPEDTAVYYCAREYCTGDTCFAHFDYWGQGTLVSVSS
VL: ELQMTQSPSSVSASVGDTVTIACRASQSITNYLSWYQQKPGKAPKLLIYHASTLQSGIPSRFSGSGSGTDFTLTISSLQPDDFATYYCHYGYGTHTFGQGTKLEIKRT
B1 came in with a PRNT50 titer in test [1] above 70 µg/mL.

B2: fusion peptide … (peptide)
peptide: DRGWGNGSGLFGKGG
modifications: not checked
For the molecule B2, the IC50 with chimpanzee Fab 1A5 was 170 µM.
